# According to US20150351390A1, “COMPOSITIONS AND METHODS FOR AUXIN-ANALOG CONJUGATION” (PIONEER HI-BRED INTERNATIONAL, INC., priority 2012, published 2015):
# B1: SlGH3-14: GH3 protein, SGN-E745758 (protein, listed as Solanum lycopersicum)
# chain: MKMMVENIEKKFDAEEVIEDFEVLTKDAGRIQEETLEKILKENGGTEYLKQWGLNGRTDVETFKACVPIVGHNDLEPYIQRIADGDLSPILTGKPIETISLSSGTTQGKPKFVPFNDELMDSTMQIFKTSFAFRNREFPIGNGKALQFIYSSKQFKTKGGLAAGTATTNVYRNAQFKKTMNAMSTPVCSPDEVIFGPDFQQSLYCHLLSGLIFRDEVQVVSSTFAHSIVHAFRTFEQVWEELVVDIREGVLSSRVTVPSIRLAMSKLLKPDPELAETIYSKCSSLSNWYGLIPELFPNTKYIYGIMTGSMEPYLKKLRHYAGELPLLSADYGSSEGWVGVNVNPKFPPEMVTYAVLPNIGYFEFLPLEENLVGVEQANSPVGLTEVKLGEEYEIVFTNFAGLYRYRLGDVVKIKGFHNGTPELQFVCRRNLLLSINIDKNTEKDLQLAVEAAGKHLVDEKLEVMDFTSHVNVSADPGHYVIFWELSGEATDEILQECCNCLDKSFLDAGYVSSRKVNAIGALELRIVKRGTFHKILDHFVGLGGAVSQFKTPRCVGPKNSSLIQILSSNVVKSYSSTAFC
# B2: GmGH3-2: GH3 protein, accession XP_003521802.1 (protein)
# chain: MLEKVEEFNMDKVIQEFELLTRDAERVQRETLKRILEDNASAEYLQSLGLNGRTDPESFKACVPMVTHKELEPYIYRIIDGDASPILTGKPITTMSLSSGTTQGKPKYVPWNDELYETTMQIYQTSFAFRNREFPIKNGKALSFIYGSKQLKTKGGLAARTATSNVFCSAGYKCAMRALQSQCCSPDEVIFGPDFFQSLYCHLLCGLIFREEVEFVSSTFAHSIVHAFRTFEQVWEELCNDIREGVLTRNVTVPSIRMAMSKLLKPNPELANAIHKKCTGLSNWYGLIPELFPNAKYIYGIMTGSMEPYLKKMRHYAGELPLLTADYGSSEGWIAANVNPQLPPEYATYAVLPHIGYFEFIPLLELENTKPLGLTQVKVGQEYEIVMTNPAGLYRYRLGDVVKVMGFHNSTPELKFIRRSSLLLNINIDKNTEKDLQLAVEAAGKLLAEEKLEVVDFSSQVDLSKEPGHYVIFWEISGDASQELLHECCNCLDKSFVDAGYTSSRKVNCIGALELRLVRRGTFQKILDHYLGLGTAVSQYKTPRCVGPTNTRVLQILSENVVNNYLSTAFN
# modifications: Glycine max
# B3: GmGH3-6: GH3 protein, accession XP_003540891.1 (protein)
# chain: MPQHQPTLMEPVLSYNNSTNNGNGNSDYDIISWFEDVSQNAGFVQTQLLFQILKQNYGVEYLKKWLGSYNILEMDACALESLFSSVVPLASHADFEPFIQRIADGDTAPLLTQQPITTLSLSSGTTEGRQKFVPFTRHSAQTTLQIFTLAAAYRSRIYPIRQGGRILEFIYSSNRFKTKGGLTVGTATTHYYASEEFNIKQHKTKSFTCSPQEVISGGDYKQSTYCHLLLGLFFSDQVEFITSAFIYSMVQAFTTFEELWREICNDIRDGTLSSRIKSPKMRKAVLDIISPNPNLAAKLEDACKGLEVVDWFGLIPKLWPNAKYVYSIMTGSMQPYLKKLRHYANGLPLVSADYGSTESWIGVNVDPSLPPEDVTFAVVPTFSYFEFIPLHRNEKNFSSGGDDFIEDKPIPLSQIKVGQEYEVVLTTFTGLYRCRLGDVVEVAGFHNGTPKLNFVCRRKLILTINIDKNTEKDLQLVVERGSHILNMTSRGELVDFTSYADVSKQPGHYVIYWEIKGEVEDKILGACCNEMDKSFADHGYVVSRKTNSIGPLELCVLESGTFKKILDSFIANGAALSQFKTPRCTNNHVLLKILNTCTTKKFRSTAYNSSMEQ
# modifications: Glycine max
# B4: GmGH3-10: GH3 protein, accession XP_003541929.1 (protein)
# chain: MPEAPKHLCHDPKDNLDDDDDDGSSNNNKRALEYIEEVTTNADEIQEKVLAQILSRSANAEYLQRHGLEGRTDRNTFKNIMPVVTYEDLKPDIDRIANGDTSPILCSKPISEFLTSSGTSGGERKLMPTIEEELERRSMLYSLLMPVMDQFVPDLDKGKGMYFLFTKSEAKTPGGLLARPVLTSYYKSSHFKHRKHDPYTNYTSPNETILCHDSYQSMYSQLLCGLYQNEEVLRVGAVFASGFIRALKFLEKHFVCLCNDIRTGTLDAKITDPSVREAVMKVLKPNPTLADFVETECMKGSWKGIITRIWPNTKYVDVIVTGTMSQYIPILDYYSNGLPLVCTMYASSECYFGLNLNPSCDPSEVAYTLIPTMAYFEFLPLDEINGHTNSISQLEQEHLVDLADVKLGQEYELVVTTYAGLYRYRVGDILRVAGFKNKAPQFNFVCRKNVVLSIDSDKTDEVELHNAVKSGAEQLAEFNASLTEYTSCVDTSTIPGHYVLYWEISTNDHTPTIPSSVFGHCCLSIEESLNSVYRQGRVSESIGPLEIKVVENGTFDKLMDFALSQGASINQYKTPRCVTYAPILDLLNSKVLSSYISPKCPNWVPGHKDWCTLH
# modifications: Glycine max
# B5: GmGH3-14: GH3 protein, accession XP_003516612.1 (protein)
# chain: MRPYPYVFPGPHVLPAKSTTEVVLIFCPLRYPGPLPLSFPFILSILILPSLIMALQFIEQVTKNTDSVQERVLSEILTQNAETEYLKRFALNGATDRDTFKSKVPVVTYEDLQPDIERIANGDRSPILCAHPISEFLTSSGTSAGERKLMPTIHEEMDRRQLLYSLLMPVMNQYVSDLDKGKALHFLFIKAEAKTPGGLMARPVLTSYYKSEQFRKRPFDPYNVLTSPNEAILCPDSFQSMYTQMLCGLIMRHEVLRVGAVFASGLLRAIRFLQLNWEQLSHDILTGTLNPKITEPSIKERMSKILKPDPELAAFIKSECSGENWERIIVRIWPNTKYLDVIVTGAMAQYIPTLDYYSGGLPKPCTMYASSECFFGLNLKPMSEPSDVSYTILPNMGYFEFLPHDDSSPITLSKDSPPRLVELADVELGKYYELIITTYAGLCRYRVGDILQVTGFHNSDPQFRFVRRKNVLLSIDSDKTDESELQKAVENASELLKEFNTSVAEYTSFADTKSIPGHYVIYWELMMKDSSHPPTNQVLNQCCLVMEESLNSVYRQGRVADNSIGPLEIRVVKNGTFEELMDYAISRGASINQYKVPRCVSFTPIMELLDSRVLSFHFSPAAPHWTPERRR
# modifications: Glycine max
# B6: GmGH3-15: GH3 protein, accession XP_003540050.1 (protein)
# chain: MPEAPRDYNLFEQNKKTLEFIEDVTANADQVQKRVLSEILSNNANVEYLKRHDLHGQTDRETFKKLLPVITYEDIQPDINRIANGDTSPILCSKPISEFLTSSGTSGGERKLMPTIEEELGRRSLLYSLLMPVMSQFVPGLEKGKGMYLMFIKSEAKTPGGIVARPVLTSYYKSSYFKDRPYDPYTNYTSPNETVLCPDSYQSMYSQLLCGLCQHKEVLRVGAVFASGFIRAIRFLEKHWPLLCHDIRTGTINNTITDLSVRDAVMKILKPDPRLGDLIQSECGKSSWQGIITRLWPNTKYVDVIVTGTMSQYIPTLDYYSNGLPLVCTMYASSECYFGVNLNPLCKPSEVSYTLIPTMCYYEFLPVNRSNGVSHDSLHTPRSLNEKEQQELVELVDVKLGQEYELVVTTYAGLYRYRVGDVLRVAGFKNKAPQFNFVCRKNVVLSIDSDKTDEVELQNAMKNAVTHLVPFDASVSEYTSYADTTTIPGHYVLYWELSLKGSTPIPPCVFEDCCLAIEESLNSVYRQGRVSDKSIGPLEIKIVEQGTFDKLMDYAISLGASINQYKTPRCVKFAPVVELLNSRVVEKYFSPKCPKWVPGHKQWINQN
# modifications: Glycine max
# Experiments:
# Format in all cases: biochemical
# [1] = LC-MS assay of GH3 conjugation of 2,4-D with Asp or Glu; conditions: LC-MS; for Detected auxin conjugates: 2,4-D-Asp: 2,4-D with Asp; for Detected auxin conjugates: 2,4-D-Glu: 2,4-D with Glu
# Summary of the method: (§1)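 Kinetic parameters come from Michaelis-Menten fits of initial velocities. Velocities reflect LC-MS quantification, against standards, of Asp or Glu conjugates formed by purified GH3 (44 to 164 μg/mL) with 5 mM ATP and MgCl2 at pH 8.0, 30° C.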
# [2] = LC-MS assay of GH3 conjugation of IAA with Asp or Glu; conditions: LC-MS; for Detected auxin conjugates: IAA-Asp: IAA with Asp; for Detected auxin conjugates: IAA-Glu: IAA with Glu
# Summary of the method: as §1
# [3] = LC-MS assay of GH3 conjugation of dicamba with Asp or Glu; conditions: LC-MS; for Detected auxin conjugates: Dicamba-Asp: dicamba with Asp; for Detected auxin conjugates: Dicamba-Glu: dicamba with Glu
# Protocol: To detect and monitor the formation of acyl conjugates with 2,4-D or dicamba, a sensitive LC-MS method was developed using the respective amino acid conjugate standards. […] […] […] The supernatant was diluted 20× in water and then analyzed by LC-MS (AB Sciex 4000 QTrap coupled with Shimadzu Nexera UHPLC) using a Phenomenex Luna 3 μm Phenyl-Hexyl (00B-4256-Y0) column. The concentration of the conjugates was calculated based on the standards. Kinetic parameters were estimated by fitting initial velocity values to the Michaelis-Menten equation.
# The GH3 superfamily conjugase activity analysis of IAA, 2,4-D or dicamba with Asp or Glu was done using LC-MS to analyze the final conjugate products as described in Example 1. Protein sequences of GH3 homologs (Table 3) were obtained from public databases (NCBI, http://www.ncbi.nlm.nih.gov/) by Blast analysis of AtGH3.17 protein sequence (accession # Q9FZ87). Coding sequences were designed for optimal expression in E. coli based on the protein sequences and synthesized. Synthesized coding sequences along with N-term his-tag coding sequences were cloned into a pET24a-based E. coli expression vector. The E. coli expression vectors were transformed into OverExpress C41(DE3) cells (Lucigen) for protein expression. Recombinant E. coli strains were inoculated into 5 ml LB media supplemented with 40 mg/L kanamycin and cultured overnight at 37° C. The overnight culture (0.5 mL) was inoculated into 50 mL LB medium plus 40 mg/L kanamycin and grown at 30° C. until OD600 reached 0.6. The cultures were induced with 0.2 mM IPTG at 16° C., 230 rpm overnight. Cells were harvested by centrifugation at 7,000 rpm for 10 mins. The cell pellet from 50 mL of cell culture was frozen and thawed twice and then lysed in 800 μL lysis buffer A (150 mM NaCl, 50 mM Tris-HCl pH 8.0, 5 mM MgCl2, 10% glycerol) plus 20 mM imidazole, 1 mM DTT, 0.2 mg/ml lysozyme, 1/200 protease inhibitor cocktail (EMD set3, EDTA free) and 1/2000 endonuclease. Lysate was then centrifuged at 13,000 rpm for 30 min at 4° C. Supernatant was loaded onto 200 μL Ni-NTA columns pre-equilibrated with buffer A with 20 mM imidazole at 4° C. Each column was then washed with (1) 2×800 μL of buffer A with 10 mM imidazole, (2) 2×800 μL of buffer A with 20 mM imidazole and (3) 2×200 μL of buffer A with 50 mM imidazole. Protein was eluted with 200 μL of buffer A with 250 mM imidazole. The concentration was measured by Bradford assay. Purified protein was used in conjugation reaction assays as described in example 1.
Molecule,"Detected auxin conjugates: 2,4-D-Asp [1]","Detected auxin conjugates: 2,4-D-Glu [1]",Detected auxin conjugates: IAA-Asp [2],Detected auxin conjugates: IAA-Glu [2],Detected auxin conjugates: Dicamba-Asp [3],Detected auxin conjugates: Dicamba-Glu [3]
B1,No,No,No,No,No,No
B2,No,No,Yes,No,No,No
B3,No,No,Yes,Yes,No,No
B4,Yes,Yes,Yes,Yes,No,No
B5,No,No,No,No,No,No
B6,Yes,Yes,Yes,Yes,No,No
